Data on two molecules can be found in patent US7947279B2, “Peptide having hydrolase activity” (The Trustees of Columbia University in the City of New York, priority 2005, dated 2011).

“Also recorded” adds a separate entry of the source.

For one data set, the target named is T1, Uch-L3 (Homo sapiens, UniProt P15374).
T1 sequence (P15374 1-230): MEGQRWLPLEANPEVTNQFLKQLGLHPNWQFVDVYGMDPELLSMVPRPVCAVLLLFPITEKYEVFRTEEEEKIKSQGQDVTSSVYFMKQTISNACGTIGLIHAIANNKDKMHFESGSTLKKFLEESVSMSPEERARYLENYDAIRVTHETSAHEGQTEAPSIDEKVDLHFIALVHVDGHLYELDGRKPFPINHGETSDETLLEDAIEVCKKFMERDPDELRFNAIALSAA
The note with it: cited from earlier work.

Data set [1] has as its target T2, Uch-L1 (Mus musculus, UniProt Q9R0P9).
T2 construct: hippocampal tissue was treated with tissue protein extraction reagent; from tissue; host or cells: mouse hippocampal slices (C57/BL6 or APP/PS1 and WT littermates)
T2 sequence (Q9R0P9 1-220): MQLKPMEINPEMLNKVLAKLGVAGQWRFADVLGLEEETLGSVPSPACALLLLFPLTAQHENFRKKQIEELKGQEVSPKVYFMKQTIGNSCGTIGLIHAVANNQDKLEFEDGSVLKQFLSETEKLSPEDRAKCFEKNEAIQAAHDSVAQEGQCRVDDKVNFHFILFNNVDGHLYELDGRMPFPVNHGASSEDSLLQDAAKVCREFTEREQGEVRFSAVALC
Nature of the data set: Hydrolase (ubiquitin-AMC) assay on hippocampal slices. The data set is classed as cell-based. On the procedure: (§1) Slice preparation. Mice were decapitated and their hippocampi removed. […] Slices were permitted to recover from cutting for at least 90 min. before recordings. For experiments with lactacystin, slices were perfused with the drug or vehicle for 2 to 4 hrs in a small volume (10 ml) chamber.
(§2) Briefly, hippocampal tissue was treated with tissue protein extraction reagent (T-PER; Pierce) containing freshly added EDTA-free protease inhibitors. Homogenate was centrifuged at 10,000 rpm for 5 min. Protein concentration was measured in the supernatant using the BCA protein assay reagent. In some experiments hydrolysis was initiated by adding 10 μl of 20 nM Uch-L1 or Uch-L3 (Boston Biochem). The hydrolase assay was performed using fluorogenic ubiquitin-7-amino-4-methylcoumarin (ubiquitin-AMC) (Boston Biochem) as a substrate. The substrate was diluted in assay buffer (50 mM Tris-HCL, 0.5 mM EDTA, 5 mM dithiothreitol and 0.1 mg/ml ovalbumin, pH 7.6). Each reaction mixture containing 400 nM substrate and 100 μg enzyme sample was incubated for 5 min at room temperature. The reaction was monitored using a fluorescence spectrophotometer (CytoFluor Series 4000, ABI Inc) at 25° C. The free AMC fluorophore was excited at 380 nm and measured at 460 nm. […] In some experiments, hydrolysis was also measured on the soluble and insoluble fractions (FIG. 28D). In a group of experiments hydrolysis was measured by mixing ubiquitin-AMC with 20 nM TAT fusion proteins (FIG. 27C). In other experiments the substrate was Nedd8-AMC (Boston Biochem).

The subject of a further data set is PKA RIIα. Nature of the data set: PKA RIIα levels in hippocampal slices (Western blot). It is filed as cell-based, mouse. The note with it: for Aβ-induced increase in PKA RIIα levels (words): fusion protein 20 nM 1 hr, Aβ 200 nM 20 min. On the procedure: Western Blotting: Protein levels were assessed using standard procedures. Protein extraction was performed using buffer with and without detergent. For the extraction of protein using detergent, hippocampal tissues and cultured hippocampal neurons (5 DIV) were homogenized in RIPA buffer (50 mM Tris-HCl pH 7.4, 1% Triton X-100, 1% sodium deoxycholate, 0.1% SDS, 150 mM sodium chloride, 10 mM sodium fluoride, 30 mM sodium pyrophosphate, 50 mM sodium orthovanadate) containing 1× complete protease inhibitor (Roche) and 1 mM phenylmethylsulfonyl fluoride (PMSF). For extraction of proteins without detergent, hippocampal extracts were homogenized with disposable dounce homogenizers in buffer A, containing 10 mM HEPES pH 7.3, 300 mM sucrose, protease 1× complete protease inhibitor (Roche) and PMSF. After centrifugation at 10,000×g supernatant proteins were resolved on a 8% or 4-20% gradient Tris-Glycine gel, transferred onto PVDF or nitrocellulose membrane and blocked in 5% skim milk in PBS-Tween 0.1% (PBS-T). Membranes were probed with primary antibodies, and after washing with PBS-T incubated with an appropriate HRP-conjugated secondary antibody. The following antibodies were used: mouse monoclonal anti-ubiquitin (Chemicon), rabbit polyclonal anti-pCREB (Upstate Biotech.), rabbit polyclonal anti-PKA-RIIα (Santa Cruz Biotech. Inc), mouse monoclonal anti-Uch-L1 (Novocastra), monoclonal mouse anti-HA (Santa Cruz Biotech. Inc), and anti-PKA IIα. Detection was performed using HRP-conjugated secondary antibodies (Pierce, Rockford, Ill.). To control loading and transfer, protein immunoreactivities were normalized against total extracellular signal-regulated protein kinases (ERK1/2) levels with a rabbit analyzed using a rabbit polyclonal anti-ERK1/2 antibody (Cell Signaling Technology, Inc). NIH IMAGE was used to analyze the scanned blots and quantify the intensity of the protein signals.
(In general: A western blot detects proteins with antibodies after separation by electrophoresis.)

Data set [2] deals with PKA. Nature of the data set: PKA kinase activity in hippocampal cultures. It is filed as cell-based, rat. To be noted: fusion protein 100 nM 24 hrs; for basal PKA activity in Aβ-treated cultures: Aβ 24 hrs. Here is the method:
PKA Kinase Activity Measurement. Primary hippocampal neurons from E18 rats were dissociated and cultured as described (Vitolo et al, Proc Natl Acad Sci USA 99:13217-13221 (2002)). […]
Hippocampal slices were lysed with RIPA lysis buffer and homogenized by Dounce homogenizer on ice. 5 DIV primary cultures were treated for 24 hrs and cells were lysed with RIPA lysis buffer.
Levels of intracellular PKA kinase activity were measured by PKA Kinase Activity Assay Kit (Stressxpress) according to manufacturer's instructions.
Preparation of Cell Cultures. Hippocampal cell cultures were prepared as previously described (Vitolo et al., 2002). In cell culture experiments fetuses at embryonic day 18 from timed pregnant Sprague-Dawley rats (Taconic Farms) were used. Fetuses were sacrificed and the hippocampi removed. Neurons were then dissociated, plated on 6 well-plates coated with poly-L-lysine and maintained in a defined serum-free medium containing minimum essential medium supplemented with N-2, glucose, albumin, pyruvic acid, antibiotics and antimycotics. […] 5 DIV cells were used for the experiments.

The nature of data set [3]: Native gel dimer formation. It is filed as physicochemical.
For data set [4], the system named is Uch-L1. Nature of the data set: Hydrolase (ubiquitin-AMC) assay on hippocampal slices. The data set is classed as cell-based, mouse. Here is the method:
as §1, §2

The test system of data set [5] is PKA. Nature of the data set: PKA kinase activity in hippocampal slices. The data set is classed as cell-based, mouse.
The mark [6] stands for this setting: listed as TAT-Uch-L1 fusion protein.

Consider `CC(=O)O/N=C1\C(=O)N(Cc2cc(Cl)ccc2Cl)c2ccc(Cl)cc21` [LDN-57444, reference compound], for which the IC50 (as a rule, the midpoint of a concentration-inhibition curve) at Uch-L3 was 25 µM. In addition, the “reduction of enzymatic activity” value on Uch-L1 [1] (1 μM LDN) is 20%; at Uch-L1 [1] (2.7 μM LDN, 2-4 hour perfusion), about 40%. Besides, at Uch-L1 [1] (5 μM LDN, 15 minute perfusion), the “inhibition of enzymatic activity” value was 20%. This molecule also displayed a reduction of activity on Uch-L1 [1] (5 μM LDN, 2 hour exposure) of 70%. Further, the “Maximal inhibition of Uch activity” value at Uch-L1 [1] (5 μM LDN, one hour (60 min)) came out at 70%. Besides, the “Uch activity in APP/PS1 slices” value at Uch-L1 [1] (5 μM for 2 hrs) is recorded as “further reduced Uch activity”. Further, on Uch-L1 [1] (5 μM for 4 hrs), the “Ubiquitin-C-Terminal hydrolase activity” value is reported as “decreased”. At Uch-L1 [1] (LDN-57444 perfusion (5 μM, 4 hrs)), the Uch-L1 hydrolase activity result is on record as “less than 30 % of vehicle-treated controls”. Moreover, the enzymatic activity at Uch-L1 [1] (WT and APP/PS1 slices, 5 μM LDN, 2 hours) is ~70 % of values in vehicle treated WT slices.

B1: TAT-HA-Uch-L1: fusion protein: 11-amino acid transduction domain of HIV-transactivator protein (TAT) fused with an HA tag and human Uch-L1 (protein)
chain: MQLKPMEINPEMLNKVLSRLGVAGQWRFVDVLGLEEESLGSVPAPACALLLLFPLTAQHENFRKKQIEELKGQEVSPKVYFMKQTIGNSCGTIGLIHAVANNQDKLGFEDGSVLKQFLSETEKMSPEDRAKCFEKNEAIQAAHDAVAQEGQCRVDDKVNFHFILFNNVDGHLYELDGRMPFPVNHGASSEDTLLKDAAKVCREFTEREQGEVRFSAVALCKAA
modifications: left off: small tags and cut ends
For the molecule B1, the “IIα regulatory subunit levels” value in the data set with PKA RIIα (20 nM TAT-HA-Uch-L1 1 hr pretreatment plus Aβ42) is 121.03±14.10 % of control. Moreover, the “Aβ-induced increase in PKA RIIα levels (words)” value is on record as “blocked by pretreatment; also recorded: re-established normal levels of regulatory subunit; also recorded: re-established normal levels of RIIα” with PKA RIIα, “blocks the increase” in the data set with PKA RIIα (setting [6]) and “blocked” in the data set on PKA RIIα (listed as Uch-L1 fusion protein). Also, the “glutamate-induced increase in PKA activity in Aβ-treated cultures” value in the data set on PKA [2] (3 μM Aβ 24 hrs, glutamate 50 μM 15 min) is listed as “rescued the increase in PKA activity; also recorded: rescued the glutamate-induced increase in kinase activity”. Further, the “basal PKA activity in Aβ-treated cultures” value with PKA [2] was “reversing the Aβ-induced decrease in basal PKA activity; also recorded: re-established; also recorded: increased levels of kinase activity”; in the data set on PKA [2] (setting [6]), “re-establishes normal levels”. For the same molecule, the “dimer formation” value in data set [3] (1 μM) was “no dimer formation was detected; also recorded: No dimers were detected”; in data set [3] (5 μM) it was “Dimers were seen at 5 μM; also recorded: A weak band corresponding to dimers and other oligomeric species was detected”. For the same molecule, the “Uch activity” value in the data set with Uch-L1 [4] (20 nM fusion protein 1 hr pre-incubation, 200 nM Aβ 20 min) was “normal monoubiquitin levels and Uch activity are maintained; also recorded: re-established normal ubiquitin-C-terminal hydrolase activity; also recorded: re-established normal Uch activity”; in the data set with Uch-L1 [4] (slices from 4 month APP/PS1 mice, 20 nM for 1 hr), “Uch activity is restored”. Besides, the “ubiquitin-c-terminal hydrolase enzymatic activity” value in the data set on Uch-L1 [4] (20 nM fusion protein 1 hr, then 200 nM Aβ plus fusion protein) is recorded as 98.40±5.76 % of TAT-HA treated WT slices. Also, the “enzymatic (Uch) activity” value in the data set on Uch-L1 [4] (fusion protein alone) was “slight increase”. The enzymatic activity in the data set on Uch-L1 [4] (fusion protein alone for 1 hr) was 148.63±12.01 % of TAT-HA treated slices. Moreover, the PKA activity in the data set with PKA [5] (20 nM TAT-HA-Uch-L1 1 hr, then 200 nM Aβ plus TAT-HA-Uch-L1 20 min) is recorded as 89.21±3.21%. Also, in the data set with PKA [5] (fusion protein 20 nM 1 hr pre-incubation, 200 nM Aβ 20 min), the “PKA activity in Aβ-treated slices” value was “blocked the reduction; also recorded: increased levels of kinase activity”.
